From patent publication US20200317768A1 (published 2020)
Where a chain is given by its changes, count along the chain named.

T1: human FcγRIIaR extracellular domain, His-tagged (human, UniProt P12318 34-217)
T1 construct: also called human FcγRIIa (type R); FcgRIIaR; not shown: C-terminal His-tag
T1 chain: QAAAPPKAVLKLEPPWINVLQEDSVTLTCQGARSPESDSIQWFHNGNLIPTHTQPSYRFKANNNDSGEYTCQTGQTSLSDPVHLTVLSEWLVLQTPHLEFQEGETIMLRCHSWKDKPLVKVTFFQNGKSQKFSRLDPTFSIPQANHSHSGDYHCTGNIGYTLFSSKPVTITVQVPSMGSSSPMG

T2: human FcγRIIaH extracellular domain, His-tagged (human, UniProt P12318 34-217)
T2 construct: also called human FcγRIIa (type H); FcgRIIaH; not shown: C-terminal His-tag
T2 sequence: T1 chain with R134H

T3: cynomolgus monkey FcγRIIIaS extracellular domain, His-tagged (cynomolgus monkey, UniProt Q8SPW2 21-206 at identity 1.00))
T3 construct: also called cyno FcγRIIIaS; cynoFcγRIIIaS; not shown: C-terminal His-tag
T3 chain: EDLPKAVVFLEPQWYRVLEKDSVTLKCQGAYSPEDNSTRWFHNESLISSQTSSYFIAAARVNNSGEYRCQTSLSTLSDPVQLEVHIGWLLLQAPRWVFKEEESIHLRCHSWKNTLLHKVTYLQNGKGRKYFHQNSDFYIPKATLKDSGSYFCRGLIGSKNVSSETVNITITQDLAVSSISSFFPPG

T4: human FcγRIIb extracellular domain, His-tagged (human, UniProt P31994 43-217)
T4 construct: also called FcgRIIb (human); not shown: C-terminal His-tag
T4 sequence: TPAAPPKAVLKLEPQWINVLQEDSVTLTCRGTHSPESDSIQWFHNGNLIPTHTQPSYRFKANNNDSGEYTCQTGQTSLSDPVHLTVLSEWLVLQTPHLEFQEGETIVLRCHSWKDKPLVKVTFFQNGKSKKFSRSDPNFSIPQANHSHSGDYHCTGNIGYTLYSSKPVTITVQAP

T5: cynomolgus monkey FcγRIIa3 extracellular domain, His-tagged (cynomolgus monkey)
T5 construct: also called cyno FcγRIIa3; cynoFcgRIIa3; not shown: C-terminal His-tag
T5 chain: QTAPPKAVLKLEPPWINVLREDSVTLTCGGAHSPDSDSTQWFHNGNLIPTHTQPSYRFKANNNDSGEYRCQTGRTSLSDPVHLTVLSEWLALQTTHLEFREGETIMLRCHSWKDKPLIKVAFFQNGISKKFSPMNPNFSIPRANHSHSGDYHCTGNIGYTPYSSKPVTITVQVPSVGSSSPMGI

T6: cynomolgus monkey FcγRIIb extracellular domain, His-tagged (cynomolgus monkey)
T6 construct: also called cyno FcγRIIb; cynoFcγRIIb; not shown: C-terminal His-tag
T6 chain: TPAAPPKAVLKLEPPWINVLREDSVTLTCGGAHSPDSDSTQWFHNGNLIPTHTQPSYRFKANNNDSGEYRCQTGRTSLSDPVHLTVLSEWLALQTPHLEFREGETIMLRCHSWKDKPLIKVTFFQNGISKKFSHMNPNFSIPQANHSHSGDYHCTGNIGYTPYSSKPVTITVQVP

T7: cynomolgus monkey FcγRIIa2 extracellular domain, His-tagged (cynomolgus monkey)
T7 construct: also called cyno FcγRIIa2; cynoFcgRIIa2; not shown: C-terminal His-tag
T7 chain: T5 chain with I127K, K130N, P133H, R142Q

B1: M103205H795-MY462/M103202L889-SK1 (antibody, human IgG1, kappa)
heavy: QVTLKESGPVLVKPTETLTLTCTVSGIDLSHDDISWVRQAPGKGLEWVGIISYAGSTYYASWAKGRLTISKDTSKNQVVLTMTNMDPVDTATYYCARGVPAYSHGGDLWGQGTLVTVSSASTKGPSVFPLAPSSKSTSGGTAALGCLVKDYFPEPVTVSWNSGALTSGVHTFPAVLQSSGLYSLSSVVTVPSSSLGTQTYICNVNHKPSNTKVDKKVEPKSCDKTHTCPPCPGPELLTGPSVFLFPPKPKDTLMISRTPEVTCVVVDVSDEDPEVKFNWYVDGVEVHNAKTKPREEQYNSTYRVVSVLTVLHQDWLNGKEYKCKVSNKALPKPIEKTISKAKGQPREPQVYTLPPSREEMTKNQVSLTCLVKGFYPSDIAVEWESNGQPENNYKTTPPVLDSDGSFFLYSKLTVDKSRWQQGNVFSCSVMHEALHNHYTQKSLSLSP
light: DIVMTQSPATLSLSPGERATLSCTSSQSVYHANWLSWFQQKPGQPPKLLIYWASTLAYGVPSRFSGSGSGTDFTLTISSLQPEDAATYYCAGGYGGGRYAFGQGTKVEIKRTVAAPSVFIFPPSDEQLKSGTASVVCLLNNFYPREAKVQWKVDNALQSGNSQESVTEQDSKDSTYSLSSTLTLSKADYEKHKVYACEVTHQGLSSPVTKSFNRGEC
notes: copies: 2 + 2
B2: M103205H795-MY468/M103202L889-SK1 (antibody, human IgG1, kappa)
heavy: B1 heavy with G233N
light: B1 light
notes: copies: 2 + 2
B3: M103205H795-MY463/M103202L889-SK1 (antibody, human IgG1, kappa)
heavy: B1 heavy with G233H
light: B1 light
notes: copies: 2 + 2
B4: M103205H795-MY465/M103202L889-SK1 (antibody, human IgG1, kappa)
heavy: B1 heavy with G233K
light: B1 light
notes: copies: 2 + 2
B5: M103205H795-MY473/M103202L889-SK1 (antibody, human IgG1, kappa)
heavy: B1 heavy with G233T
light: B1 light
notes: copies: 2 + 2
B6: M103205H795-MY472/M103202L889-SK1 (antibody, human IgG1, kappa)
heavy: B1 heavy with G233S
light: B1 light
notes: copies: 2 + 2
B7: M103205H795-MY469/M103202L889-SK1 (antibody, human IgG1, kappa)
heavy: B1 heavy with G233P
light: B1 light
notes: copies: 2 + 2
B8: M103205H795-MY464/M103202L889-SK1 (antibody, human IgG1, kappa)
heavy: B1 heavy with G233I
light: B1 light
notes: copies: 2 + 2
B9: M103205H795-MY466/M103202L889-SK1 (antibody, human IgG1, kappa)
heavy: B1 heavy with G233L
light: B1 light
notes: copies: 2 + 2
B10: M103205H795-MY471/M103202L889-SK1 (antibody, human IgG1, kappa)
heavy: B1 heavy with G233R
light: B1 light
notes: copies: 2 + 2
B11: M103205H795-MY474/M103202L889-SK1 (antibody, human IgG1, kappa)
heavy: B1 heavy with G233V
light: B1 light
notes: copies: 2 + 2
B12: M103205H795-MY467/M103202L889-SK1 (antibody, human IgG1, kappa)
heavy: B1 heavy with G233M
light: B1 light
notes: copies: 2 + 2
B13: M103205H795-MY470/M103202L889-SK1 (antibody, human IgG1, kappa)
heavy: B1 heavy with G233Q
light: B1 light
notes: copies: 2 + 2

Biological target: T1, human FcγRIIaR extracellular domain, …
Assay: SPR (BIACORE); KD of SG1 divided by KD of variant;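 also: relative to parent M103205H795-SG1 carrying the SG1 human heavy chain constant region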
Experimental: (§1) The kinetic analysis of interactions between these antibodies and FcγR was carried out using BIACORE® T200 or BIACORE® 4000 (GE Healthcare). HBS-EP+ (GE Healthcare) was used as the running buffer, and the measurement temperature was set to 25° C. A chip produced by immobilizing Protein A. Protein A/G or mouse anti-human IgG kappa light chain (BD Biosciences) onto a Series S Sensor Chip CM4 or CM5 (GE Healthcare) by the amine-coupling method was used. […] After the measurement, the antibody captured on the chip was washed off by allowing reaction with 10 mM glycine-HCl, pH1.5 and 25 mM NaOH so that the chip was regenerated and used repeatedly. The sensorgrams obtained as measurement results were analyzed by the 1:1 Langmuir binding model using the BIACORE® Evaluation Software to calculate the binding rate constant ka (L/mol/s) and dissociation rate constant kd (l/s), and the dissociation constant KD (mol/L) was calculated from these values. […] Regarding such interactions, KD values were calculated using the following 1:1 binding model described in BIACORE® T100 Software Handbook BR1006-48 Edition AE.

KD fold (SG1 = 1)	Binder
2.2 fold	B1
2.3 fold	B2
2.2 fold	B3
1.8 fold	B4
2.2 fold	B5
2.2 fold	B6
2.6 fold	B7
4.2 fold	B8
4.2 fold	B9
2.5 fold	B10
3.2 fold	B11
3.1 fold	B12
2.5 fold	B13

Biological target: T2, human FcγRIIaH extracellular domain, …
Assay: SPR (BIACORE); KD of SG1 divided by KD of variant;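 also: relative to parent M103205H795-SG1 carrying the SG1 human heavy chain constant region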
Experimental: as §1

KD fold (SG1 = 1)	Binder
2.9 fold	B1
2.5 fold	B2
3.1 fold	B3
2.8 fold	B4
3.1 fold	B5
3.8 fold	B6
3.5 fold	B7
4.1 fold	B8
4.1 fold	B9
3 fold	B10
4.1 fold	B11
3.8 fold	B12
3.3 fold	B13

Biological target: T3, cynomolgus monkey FcγRIIIaS …
Assay: SPR (BIACORE); KD of SG1 divided by KD of variant;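 also: relative to parent M103205H795-SG1 carrying the SG1 human heavy chain constant region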
Experimental: as §1

KD fold (SG1 = 1)	Binder
0.2 fold	B1
0.2 fold	B2
0.2 fold	B3
0.2 fold	B4
0.2 fold	B5
0.2 fold	B6
0.2 fold	B7
0.2 fold	B8
0.2 fold	B9
0.2 fold	B10
0.2 fold	B11
0.2 fold	B12
0.2 fold	B13

Biological target: T4, human FcγRIIb extracellular domain, …
Assay: SPR (BIACORE); KD of SG1 divided by KD of variant;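 also: relative to parent M103205H795-SG1 carrying the SG1 human heavy chain constant region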
Experimental: as §1

KD fold (SG1 = 1)	Binder
2.4 fold	B1
1.8 fold	B2
2 fold	B3
1.6 fold	B4
2.1 fold	B5
1.8 fold	B6
1.9 fold	B7
2.9 fold	B8
3.3 fold	B9
1.8 fold	B10
2.3 fold	B11
2.3 fold	B12
2 fold	B13

Biological target: T5, cynomolgus monkey FcγRIIa3 …
Assay: SPR (BIACORE); KD of SG1 divided by KD of variant
Experimental: as §1

KD fold (SG1 = 1)	Binder
4 fold	B1
3.3 fold	B2
3.9 fold	B3
3.3 fold	B4
3.1 fold	B5
3.3 fold	B6
3.5 fold	B7
4.4 fold	B8
3.9 fold	B9
3.8 fold	B10
3.5 fold	B11
3.6 fold	B12
3.5 fold	B13

Biological target: T6, cynomolgus monkey FcγRIIb extracellular …
Assay: SPR (BIACORE); KD of SG1 divided by KD of variant
Experimental: as §1

KD fold (SG1 = 1)	Binder
3.8 fold	B1
2.8 fold	B2
3.1 fold	B3
2.6 fold	B4
3.1 fold	B5
2.7 fold	B6
3 fold	B7
3.6 fold	B8
3.5 fold	B9
2.6 fold	B10
3.6 fold	B11
2.5 fold	B12
3.3 fold	B13

Biological target: T7, cynomolgus monkey FcγRIIa2 …
Assay: SPR (BIACORE); KD of SG1 divided by KD of variant
Experimental: as §1

KD fold (SG1 = 1)	Binder
3.2 fold	B1
2 fold	B2
2.3 fold	B3
1.3 fold	B4
2 fold	B5
2.4 fold	B6
2.4 fold	B7
3.4 fold	B8
2.3 fold	B9
2.4 fold	B10
2.8 fold	B11
2.7 fold	B12
2.8 fold	B13
